This assay has as its target properdin-bound C3b (human) (UniProt P27918). The assay can be described thus: ELISA, factor B titrated on C3b-coated plates with properdin.

Sequence of human factor B (P00751 other isoform, or with tags, fused parts or gaps limits assumed): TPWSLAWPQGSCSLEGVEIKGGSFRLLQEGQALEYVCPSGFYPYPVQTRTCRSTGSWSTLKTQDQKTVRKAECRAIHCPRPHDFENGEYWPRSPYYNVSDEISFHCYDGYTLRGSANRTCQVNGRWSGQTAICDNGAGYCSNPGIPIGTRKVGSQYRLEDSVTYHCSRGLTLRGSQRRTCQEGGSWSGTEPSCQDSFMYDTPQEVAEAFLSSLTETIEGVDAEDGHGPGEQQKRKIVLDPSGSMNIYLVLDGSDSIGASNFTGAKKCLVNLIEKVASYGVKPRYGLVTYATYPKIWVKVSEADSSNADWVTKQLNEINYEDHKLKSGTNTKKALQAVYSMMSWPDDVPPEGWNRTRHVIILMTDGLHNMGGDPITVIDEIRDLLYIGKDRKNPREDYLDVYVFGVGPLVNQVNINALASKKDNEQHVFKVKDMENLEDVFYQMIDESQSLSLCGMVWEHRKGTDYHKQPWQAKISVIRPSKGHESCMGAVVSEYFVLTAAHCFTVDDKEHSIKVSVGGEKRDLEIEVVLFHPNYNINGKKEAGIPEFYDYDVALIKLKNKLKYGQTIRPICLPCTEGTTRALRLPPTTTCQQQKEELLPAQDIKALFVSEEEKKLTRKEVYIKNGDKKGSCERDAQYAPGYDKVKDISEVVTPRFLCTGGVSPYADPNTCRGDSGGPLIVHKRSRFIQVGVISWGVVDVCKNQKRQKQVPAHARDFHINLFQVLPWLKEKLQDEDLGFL

“human factor B (from UniProt P00751 26-764) (enzyme)”: the Kd (as a rule, a measure of binding affinity in units of concentration) came to 1.11 nM.

The record behind these values is patent US20160002348A1.
